# Assay results from patent US20130018176A1, “METHODS OF PRODUCING HYBRIDOMAS AND MONOCLONAL ANTIBODIES AND ANTIBODIES PRODUCED THEREBY” (AMGEN INC., priority 2007, published 2013).
# Read-outs that look alike come from different tables or passages of the source.
# B1: Antibody 2.7: murine human hepcidin-specific monoclonal antibody raised against KLH-conjugated hepcidin; CDRs SEQ ID NOs: 28-33 (antibody, V domains shown)
# VH: QIQLVQSGPELKKPGETVKISCKASGYTFTTYGMSWVKQAPGKGLKWMGWINTYSGVPTYADDFKGRFAFSLETSASTAYLQINNLKNEDTATYFCGRDHYYGEVAYWGQGTLVTVSA
# VL: DIVLTQSPASLAVSLGQRATISCRASESVDSYGNSFMHWYQQKPGQPPKLLIYRASNLESGIPARFSGSGSRTDFTLTINPVEADDVATYYCHQSNEEYTFGGGTKLEIK
# Columns and labels:
# [1] = Biological activity of hepcidin variants; settings: chemically synthesized hepcidin variants
# Source text: A number of hepcidin variants were chemically synthesized according to the general procedure described in Example 4. A variant of hepcidin lacking the five amino acids at the N-terminus, designated “hepcidin 20” or “hepc20,” was synthesized. A linear hepcidin variant in which all eight cysteine residues were replaced with 2-aminobutyric acid, thus completely abolishing the ability to form disulfide bonds, was also synthesized. A C1-C8, C3-C6 hepcidin variant, in which cysteines 2, 4, 5 and 7 were substituted with 2-aminobutyric acid to allow formation of only two disulfide bonds (C1-C8 and C3-C6), was also synthesized.
# Similar results were produced using hepcidin containing its native cysteine residues, when the molecule was in a fully-reduced state (i.e., no disulfide connectivity). This reduced material was not stable, however, and regained biological activity over time.
# [2] = test system: mature human hepcidin (SEQ ID NO: 9); test: Epitope specificity: antibody binding to immobilized hepcidin surface after pre-complex with hepcidin variants (BIAcore); settings: interpretation of Table 6
# Experimental: (§1) The epitope specificity of anti-human hepcidin antibodies was evaluated by assessing ability of the antibodies to bind to mature human hepcidin (SEQ ID NO: 9) after pre-complex formation with different hepcidin variants.
# (§2) Recombinant hepcidin was immobilized on a CM5 chip according to manufacturer's instructions at a flow rate 10 μL/min of running buffer (DPBS: Dulbecco's Phosphate Buffer Saline1X, GIBCO 14190, with 0.005% BIAcore surfactant P-20). The carboxylated matrix of the sensor chip was first activated with a 100 μL injection of 1:1 mixture of EDC (75 mg/mL N-ethyl-N-(dimethylamine-propyl)carbodiimide in water, from Biacore) and NHS (11.5 mg/mL N-hydroxysuccinimide in water, from Biacore). 180 μL of rhHepc (˜20 μg/ml in 10 mM Na-acetate pH4.0) was injected to immobilize onto the sensor chip at 30 μL/min. The excess reactive groups of the sensor chip were deactivated with an injection of 100 μL of ethanolamine (1.0M, from Biacore).
# (§3) Forms of hepcidin used for the pre-complex were: correctly folded hepcidin as a positive control, the C1-C8, C3-C6 hepcidin variant (see Example 9), hepcidin 20 (N-terminally truncated, see Example 9) and linear hepcidin (Example 9). 1 nM solutions of antibody (2.41, 2.7, 43, and R9) were preincubated with 10 nM of each antigen at room temperature for several hours before run through the immobilized hepcidin surface. The binding signal obtained was proportional to the concentration of free antibody in solution at equilibrium.
# (§4) Some antibodies require the five amino acids at the N-terminus of the molecule (e.g. Ab43 and to a lesser extent, R9).
# [3] = target: T1, mature human hepcidin (SEQ ID NO: 9) (Homo sapiens, UniProt P81172); test: as above; settings: interpretation of Table 6
# T1 construct: made in house; host or cells: recombinant
# T1 sequence (P81172 60-84): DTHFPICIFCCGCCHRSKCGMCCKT
# Experimental: as §1, §2, §3, §4
# human hepcidin [4] = target: T2, human hepcidin (Homo sapiens, UniProt P81172); settings: in vivo
# human hepcidin [5] = target: T3, human hepcidin (Homo sapiens, UniProt P81172); test: Neutralization of injected human hepcidin in mice (hypoferremic response); assay type: in vivo; settings: female C57BL/6 mice; for protection from the hypoferremic response (serum iron): serum iron two hours later
# T3 construct: The pro-region of the protein was enzymatically cleaved by incubation with Kex protease; made in house; host or cells: E. coli
# T3 sequence (P81172 60-84 limits assumed): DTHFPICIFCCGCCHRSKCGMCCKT
# Experimental: Activity of anti-human hepcidin antibodies was evaluated in vivo in mice that were administered human hepcidin in an amount sufficient to generate a hypoferremic response. On day 0, female C57BL/6 mice were injected subcutaneously with a murine monoclonal antibody (Ab2.7) directed against human hepcidin. Control mice received murine IgG1 as an isotypic control. At day 3, the mice received a single intraperitoneal injection of 25 μg E. coli-derived recombinant human Hepcidin (rhHepc). Serum iron levels were analyzed two hours later. […] Statistics represent ANOVA with a Dunnett's post-hoc test comparing all groups against the saline control.
# synthetic human hepcidin = target: T4, synthetic human hepcidin (Homo sapiens, UniProt P81172); test: Iron-responsive beta-lactamase assay in 293/Fpn/BLA cells; assay type: cell-based; settings: 50 ng/mL synthetic human hepcidin, 2.5 ug/mL ferric citrate, read-out: EC50, decreased intracellular concentration of iron
# T4 construct: made in house; host or cells: chemical synthesis (Fmoc solid phase), oxidatively folded
# T4 sequence (P81172 60-84 limits assumed): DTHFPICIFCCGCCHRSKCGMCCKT
# Experimental: The effect of anti-human hepcidin antibodies on this hepcidin-mediated iron sequestration was evaluated in vitro. […] These 293/Fpn/BLA cells, taken from a 70-80% confluent culture, were plated at 2.8×10^5 cells/mL in DMEM (Invitrogen Cat#11965) 5% FBS (Invitrogen Cat#10099-141) PSQ (Invitrogen Cat#10378-016), 90 uL/well (25,000 cells/well) in BioCoat Poly-D Lysine coated plates (Becton-Dickinson Cat#35-6640) and incubated at 37C with 5% CO2. At the end of the same day, a solution of assay medium (DMEM 5% FBS PSQ) with 100 ug/mL doxycycline was made, 10 uL/well of it added to the plate, and the plate incubated overnight or for at least 20 hours. […] Mixtures were added at 100 uL/well and incubated overnight at 37C, 5% CO2 in a cell culture incubator. Plates were then removed from the incubator and equilibrated to room temperature for 10 minutes before adding 20 uL/well of the prepared Invitrogen GeneBlazer CCF4 A/M development reagent (Invitrogen Kit# K1085) and incubating for 90 minutes in the dark. Development reagent was also added to 16 wells of a control assay plate without cells containing 100 uL assay medium (DMEM 5% FBS PSQ) and incubated for the same time. Blue & Green fluorescence signals were then read on an Envision Multilabel Reader (Perkin-Elmer Inc.) by exciting at 409 nm and reading emissions at 447 nm (blue) and 520 nm (green).
# [6] = target: T5, E. coli-derived human hepcidin (Homo sapiens, UniProt P81172); test: Biacore concurrent binding to hepcidin captured on antibody 1S1 surface (sandwich pairing); settings: 20 nM hepcidin on 1S1 surface, then 50 nM antibody
# T5 construct: The pro-region of the protein was enzymatically cleaved by incubation with Kex protease; made in house; host or cells: E. coli
# T5 sequence (P81172 60-84 limits assumed): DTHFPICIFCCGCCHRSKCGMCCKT
# Experimental: Using Biacore analysis, a surface coated with antibody 1S1 was tested for the concurrent binding of hepcidin and another antibody (FIG. 28). Immobilization of anti-Hepc antibody 1S1 to the sensor chip surface was performed according to manufacturer's instructions using a continuous flow of 0.005% P-20/PBS buffer. Briefly, carboxyl groups on the sensor chip surfaces were activated by injecting 60 μL of a mixture containing 0.2 M N-ethyl-N′-(dimethylaminopropyl)carbodiimide (EDC) and 0.05 M N-hydroxysuccinimide (NHS). This was followed by injecting 1S1 diluted in 10 mM acetate, pH 4.0 at concentrations between 20 μg/mL. Excess reactive groups on the surfaces were deactivated by injecting 60 μL of 1 M ethanolamine. Final immobilized levels were 5,000-6,000 resonance units (RU) for the Ab 1S1 surface. A blank, mock-coupled reference surface was also prepared on the sensor chip. 20 nM E. coli-derived human hepcidin was injected over and bound to the 1S1 antibody surface. Then 50 nM antibody 2.7, 23F11, 26F11, and 1S1 were injected over the hepcidin/1S1 surface. After the antibody injection, the surfaces were regenerated by injecting 30 μL 10 mM HCl pH 2.0.
# human hepcidin [7] = target: T2, human hepcidin; test: Combination of anti-hepcidin antibody and darbepoetin alfa in viral hepcidin over-expression model; assay type: in vivo; settings: AAV-human hepcidin mice
# Experimental: Male C57BL/6 mice were injected with AAV (5×10^12 particles/mouse, I.V.) containing genes coding for either human hepcidin or GFP as an expression control (n=5 per group). After allowing two weeks to establish constitutive protein expression, mice were bled to determine baseline hemoglobin (Hb) levels, then treated with Ab 2.7 (1 mg/mouse) or isotype control at various dose frequencies. On the day after the first dose, they were treated with darbepoietin alfa ([…], subcutaneous). A schematic of the dosing schedule appears in FIG. 15A.
# Neutralization of hepcidin restores responsiveness to darbepoetin alfa. […] (See FIG. 15D.) Antibody dose and proximity of antibody dose to darbepoietin alfa treatment affected overall Hb response to anti-hepcidin antibody treatment, as shown in FIG. 15E (results varying from the control where p<0.01 by ANOVA with Dunnett's post-hoc test are noted with double asterisks).
# human hepcidin [8] = target: T2, human hepcidin; test: Antibody neutralization of AAV-delivered human hepcidin in mice; assay type: in vivo; settings: 1 mg/mouse
# Experimental: AAV-mediated human hepcidin expression in mice produces a microcytic, hypochromic anemia consistent with iron deprivation. The activity of anti-human hepcidin antibodies was evaluated in vivo in these mice overexpressing human hepcidin. Male C57B1/6 mice were injected with AAV (1.5×10^12 particles/mouse, I.V.) containing expression cassettes for either human hepcidin or beta-galactosidase (β-gal) as a negative control. The mice were left for two weeks to allow constitutive production of huHepc before being treated with 1 mg/mouse of Ab 2.7 or isotype control (muIgG1) at various dosing frequencies (1×, 2× and 4× per week) as shown in FIG. 12A. Blood was drawn on the fifth day for serum iron levels and determination of early red blood cell (reticulocyte) characteristics (reticulocyte count, reticulocyte hemoglobin content (CHr), and reticulocyte mean cell volume (Retic. MCV))
# Statistical comparisons to β-gal injected animals with isotype control treatment were determined to look for restoration of normal red cell characteristics (ANOVA with Dunnett's post-hoc test).
molecule,measurement,setting,value
hepc20: variant of hepcidin lacking the five amino acids at the N-terminus (SEQ ID NO: 96) (ICIFCCGCCHRSKCGMCCKT),biological activity,[1],severely diminished biological activity
B1,"Binding to Solution Epitopes, C1-C8 C3-C6",[2],++++ (0% antibody binding to the hepcidin surface and therefore 100% inhibition by hepcidin in solution)
same,"Binding to Solution Epitopes, Linear Hepcidin",[2],− (100% antibody binding to the hepcidin surface and therefore no inhibition by hepcidin in solution)
same,"Binding to Solution Epitopes, Folded Hepcidin",[3],++++ (0% antibody binding to the hepcidin surface and therefore 100% inhibition by hepcidin in solution)
same,response to darbepoietin alfa (Hb levels),human hepcidin [4],did not respond
same,responsiveness to darbepoietin alfa (hemoglobin levels),human hepcidin [4],restored responsiveness
same,hypoferremia (serum iron),"human hepcidin [5]; 0.25 mg antibody s.c. day 0, 25 μg rhHepc i.p. day 3",reduction in hypoferremia
same,protection from the hypoferremic response (serum iron),"human hepcidin [5]; 0.5 mg antibody s.c. day 0, 25 μg rhHepc i.p. day 3",statistically significant protection from the hypoferremic response
same,protection from the hypoferremic response (serum iron),"human hepcidin [5]; 1 mg antibody s.c. day 0, 25 μg rhHepc i.p. day 3",statistically significant protection from the hypoferremic response
same,neutralization of hypoferremic response,human hepcidin [5]; lower doses (0.25 and 0.1 mg) of antibody,non-neutralizing doses
same,EC50,synthetic human hepcidin,17 nM
same,ability to bind hepcidin concurrently with 1S1 (sandwich pair),[6],not able to form a sandwich pair with 1S1
same,response to darbepoietin alfa (increase in Hb levels),human hepcidin [7]; antibody 1 mg/mouse Monday-Wednesday-Friday dosing plus darbepoietin alfa,partial response
same,response to darbepoietin alfa (Hb levels),human hepcidin [7]; antibody 1 mg/mouse daily (Monday through Friday) plus darbepoietin alfa,maximal response
same,Hb levels,human hepcidin [7]; antibody Monday-Wednesday-Friday dosing without darbepoietin alfa,no rise in Hb levels
same,response to darbepoietin alfa (Hb levels),human hepcidin [7]; two and three doses of antibody plus darbepoietin alfa,partial response
same,Serum iron levels,"human hepcidin [8]; AAV-human hepcidin male C57B1/6 mice, 4× per week",restored to normal
same,reticulocyte mean cell volume (Retic. MCV),"human hepcidin [8]; AAV-human hepcidin mice, 1× dose",microcytosis is still present
same,reticulocyte hemoglobin content (CHr),"human hepcidin [8]; AAV-human hepcidin mice, 1× dosing",hypochromicity is still seen
same,reticulocyte mean cell volume (Retic. MCV),"human hepcidin [8]; AAV-human hepcidin mice, 2× dose",restores normal volume
same,reticulocyte hemoglobin content (CHr),"human hepcidin [8]; AAV-human hepcidin mice, 2× dosing",normal
same,reticulocyte mean cell volume (Retic. MCV),"human hepcidin [8]; AAV-human hepcidin mice, 4× dose",restores normal volume
same,reticulocyte hemoglobin content (CHr),"human hepcidin [8]; AAV-human hepcidin mice, 4× dosing",normal
same,reticulocyte production (reticulocyte count),"human hepcidin [8]; AAV-human hepcidin mice, all dosing frequencies (1×, 2×, 4× per week)",increased reticulocyte production
